Results: the nanobody polyreactivity screen of Harvey et al. (2022)

Test: yeast display, Sf9 membrane polyspecificity reagent, FACS + sequencing; frameworks hold sequencing errors
Procedure, shortened: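 Polyreactivity labels are assigned by the sorting gate from which each nanobody was recovered. The gates were low and high (top ~1%), set on anti-HA fluorescence for expression and streptavidin fluorescence for reagent binding. Before sorting, galactose-induced (36–48 hours) yeast display cells were stained for 1 hour at 4 °C with 10% biotinylated, detergent-solubilized Sf9 membrane reagent.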

Row | Sequence | polyreactivity (PSR sort gate)
1 | QVQLVESGRGLVQAGGSLRLSCADSGRTFGYYGMGWYRQAPGKEREFVAAITRSGGSTYYADSVKGRFTISRDHAKNTVYLQMNSLKPEDTAVYYCAAAHLFTRSRPYDYWGQGTQVTVSS | high polyreactivity
2 | QVQLVESGRGLVQAGGSLRLSCAPSGFTFNVNAMGWYRQAPGKERELVAAISSSGTRTYYADSVKGRFTISRDNAKNTFYLQMNSLKPEDTAVYYCGASGQAYSGDRMYYWGQGTQVTVSS | high polyreactivity
3 | QVQLVESGRGLVQAGGSLRLSCASSGSIKQNAMGWNRQAPGKETELVAAIDWDGSSTYYADSVKGRFTISRDNAKNTVYLQMNSLKPEDTAVYYCAKGWYRIKRNDYWGQGTQVTVSS | low polyreactivity
4 | QVQLVESGRGLVQAGGSLRLSCDASGFIFPWYAMGWYRQAPGKERELVAAITSGGSTTYADSVKGRFTISRDNAKNTVYLQMNSLKPEDTAVYYCAAAYPWGDYGVSDYDYWGQGTQVTVSS | high polyreactivity
5 | QVQLVESGRGLVQAGRTLRLSCAASGFIFQWYTMGWYRQAPGKDRELVADIRSGGDTNYADSVKGRFTISRDTAKNSVYLQMYSLKPEDTAVYYCATETFFPLRRASYGRKLGYWGQGTQVTVSS | low polyreactivity
6 | QVQLVESGRGLVQAGVSLRLSCAASGSIFEQYAMGWYRQAPGKERELVAAITISGGGTFYADSVKGRFTISRDNAKNTVYLQMNSLKPEDTAVYYCAKRGYYFWSRKYGYWGQGTQVTVSS | low polyreactivity
7 | QVQLVESGRGLVQEGGSLRLSCAASGRNVVFYTMGWNRQEPVKERELVATISIRGSTYYADSVKGRFTISRDNAKNTVYLKMNSLKPEDTAVYYCAAVYYSYYSFSYNYWGQGTVVTVSS | low polyreactivity
8 | QVQLVESGVGIGQAGGSLRLTCAASGRTVSKYGKGWYRHAPGKEREMVAAISGRGGSTYYADSVKGRFTISRDHAKNTVYLQMNSLNPEDNAVYYCAQDLSYRPHGHGDGHYDFWGQGTQVTVSS | low polyreactivity
9 | QVQLVESGVGIVQAGGSLRLSCAASGSTYGYNAMGWYRQAPGKESEFVARIRSSGSTTYADSVKRRFTISRDNAMNTVYLLMNSLNPEDNAVYYWAARRYFYLVVYYSWGQCTQVTVSS | high polyreactivity
10 | QVQLVESGVGIVQAGGSLRLSSAPSGRTFTWYAMGRTRQAPGKERELVAAITNGGRTYADSVKGRFTISRDNAKNTVYLQMNSLKPEDTAVYYCAKVQYRGYLPHQRGRERDYDYWGQGTQVTVSS | low polyreactivity
11 | QVQLVESGVGIVQAGGSLRVSCAASGRIFYYYAMGWYRHAPGKERELVAVINSGDSTNYADSVKGRFTISRDNAKNSVYFQMNSLKPEDTAVYYCAKGVISDLDYWADYDYWGQGTQVSVSS | low polyreactivity
12 | QVQLVESGVGLFQAGGSLRLSCAASGRIFTLYTMGWYRQAPGKEREFVAALSRTGGRTYYADSVKGRFTISRDNAKNTVYLQMNSLKPEDTAVYYCAARSQSYTTHRYYYWGQGSQVTVSS | high polyreactivity
13 | QVQLVESGVGLFQAGGSLRLSCAPSGSTFIGYAMEWYRQAPGKERELVAAISWSGGRTYYADSVKGRFTISRDNAKNTVYLQMISLKPEDTAVYYCNTVPYRISVQFNYWGQGTQVTLSS | high polyreactivity
14 | QVQLVESGVGLLQAGGSLRLSCADSGRIISGNAMVWYRQAPGKEREMVAAISSGGSTYYADSVKGRFTISRDNAMNTVYLQMNSLKPEATAVFYCNKRRGRKWPGNFSVVKLLMGSWGQGTQVTVSS | low polyreactivity
15 | QVQLVESGVGLVQAAGSLRLSCAASGSTFSSYAMGWYRQAPGKERELVAVISSRGSRTYYADSVKGRFTNSRDNAKNSVYLLMNSLKPEDTAVYYCAARAVKQYGNSYESWGQGTQVTVSS | high polyreactivity
16 | QVQLVESGVGLVQAGGRLRLSCAASGLIFNDNMGWYRQSPGKEREVVAAISSSGGSTSYADSVKGRFTISRDNAKNTVYLQMNSLKPEDTAVYYCAADSYPAYLGFVGFDYWGQGTQVTVSS | low polyreactivity
17 | QVQLVESGVGLVQAGGRLRLSCAASGRIIYIYAMGWYRQAPGKERELVAAITASSGSTNYADSVKGRFTISRDNAKNTVYLQMNSLKPEDTAVYYCSAAPSRTLLRQTKYYYWGQGTQVTVSS | low polyreactivity
18 | QVQLVESGVGLVQAGGSLGLTCAASGSIFYRYTMGWYREAPGKERELVAAISSDGDSTYYADSVKGRFTISRDNAKNTVYLQMNSLKPEDTAVYYCAADLEPYIGYHFYYWGQGTQVTVSS | low polyreactivity
19 | QVQLVESGVGLVQAGGSLRFSCAASAMGWSRQAPGKERELVAVINSTGGSTYYADSVKGRFTISRDNAKNTVYLQMNSLKPDATAVYYCARVTRRGPGYTTLYSRYDYWGQGTQVSVSS | low polyreactivity
20 | QVQLVESGVGLVQAGGSLRLICAASGFTFAKYAMGWYRQAPGKERELVAAISRSAGSTYYADSVKGRFTISRDYAKNTVYLQMNSLIPDDTAVYYCAADPLIYDDYYWGQGSQVTVSS | high polyreactivity
21 | QVQLVESGVGLVQAGGSLRLICAASGSTFGYYAMGWYRQAPGKERELVAAITGRGGSTYYADSVKGRFTISRDNAKNTVYLQMNSLKPEDTAVYYCAVGKYRLYYSGAYGFWGQGTQVTVSS | high polyreactivity
22 | QVQLVESGVGLVQAGGSLRLRCAASGFTFRYYAMGWNRQAPGKERELVATMSSAGTTNYADSVKGRFTISRDNAKNTVYLPMNSLKPEDTAVYYCAKDLYYRHWRGGFWGQGTQVTVSS | low polyreactivity

Row | Sequence | polyreactivity (PSR sort gate)
23 | QVQLVESGVGLVQAGGSLRLSCAACGSTFPINAMGWYRQAPGKESELVAAISWSAGSTHYADSVKGRFTISRDNAKNTVYLQMNSLKPEDTAVYYCAAETWGLGDYWGLGTQVTVSS | low polyreactivity
24 | QVQLVESGVGLVQAGGSLRLSCAASGFIFNYNTMGWYRQAPGKERELVAAISSSGGSTYYADSVKGRFTISRDNAKNTVYLQMNSLKPEDTAVYYCAAGANAQRVPNGDYWGQGTQVTVSS | low polyreactivity
25 | QVQLVESGVGLVQAGGSLRLSCAASGFIFRYYTMGWYRPAPGKERELVAVITSGGTTYYADSVKGRFTISRDNAKNTVYLHMNSLIPEDTAVYYCAADYRPRLYGVGVDYWGQGSQVTVSS | low polyreactivity
26 | QVQLVESGVGLVQAGGSLRLSCAASGFIFSSYAMGWYRQAPGKERELVAAISRSGGRTYYADSVKGRFTISRDNAKNTVYLQMNSLKPEDTAVYYCDATWLGTDGDDYWGQGTQVTVSS | high polyreactivity
27 | QVQLVESGVGLVQAGGSLRLSCAASGFISVNNAMGWYRQAPGKERELVAAITDTDDSTYADSVKGRFTISRDNAKNTVYLQMNSLKPEDTAVYYCAAGIIYSNEPNITSYDYWGQGTQVTVSS | low polyreactivity
28 | QVQLVESGVGLVQAGGSLRLSCAASGFTFGDNAMGWYRQAPGKERELVADITSSGSTNYADSVKGRFTISRDNAKNTVYLQMNSLKPEDTAVYYCNAVDSVDAPVYKDLGSEYDSWGQGTQVTVSS | low polyreactivity
29 | QVQLVESGVGLVQAGGSLRLSCAASGFTFPSYTMGWYRQAPGKERELVAAITSGGITYYADSVKGRFTISRDNANYTVYLQMNSLKPEDTAVYYCAVVNFRTSVYYPYRTMDYWGQGTQVTVSS | high polyreactivity
30 | QVQLVESGVGLVQAGGSLRLSCAASGGTFGYYVMGWYRQATGKESELVAAITSGGSTKYADSVKGRFTISRDNAKNTVYLQMNSLNPEDTAVYYCAADVTRREPYQSYDFWGQGTQVTVSS | low polyreactivity
31 | QVQLVESGVGLVQAGGSLRLSCAASGIIFGFYAMGWYRQAPGKERELVAAISVSGGSTNYADSVKGRFTISRDNAKNTVYLQMNSLKPEDTAVYYCAARVRDSLVYGGWDDYWGQGTQVTVSS | high polyreactivity
32 | QVQLVESGVGLVQAGGSLRLSCAASGITFNVNAMGWYRQAPGKERELVARITTSGGSTSYADSVKGRFTISRDNAKNTVYLQMNSLKPEDTAVYYCAADRARYYSEYDYWGQGTQVTVSS | low polyreactivity
33 | QVQLVESGVGLVQAGGSLRLSCAASGLIFPYYAMGWYRQAPGKERELVAAITSGSGTYYADSVKGRFTISRDNGKNTVYIQMNSLKPEDTAVYYCNAYILFWEYGYWGQGTQVTVSS | high polyreactivity
34 | QVQLVESGVGLVQAGGSLRLSCAASGLIIYAYVMGWYRQAPGKERELVATISRSGARTHYADSVKGRFTISRDNAKNTVYLQMNSLKPEDTAVYYCAADVYLSSYEKYGYWGQGTQVTVSS | high polyreactivity
35 | QVQLVESGVGLVQAGGSLRLSCAASGLTFRPNAMGWYRQAPGKERELVASISFSGGSTYYADSVKGRFTISRDNAKNTVYLQMNSLKPEDTAVYYCAADVATTHELDYWGQGTQVTVSS | high polyreactivity
36 | QVQLVESGVGLVQAGGSLRLSCAASGLTFRYYAMGWYRQAPGKERELVAAITRRGSTYYADSVKGRFTISRDNAKNTVYLQMISLKPEVTAVYYCATVTGFHSSPLRDLDYWGQGTQVTVSS | high polyreactivity
37 | QVQLVESGVGLVQAGGSLRLSCAASGLTYYGYVMGWYRQAPGKERELVAAISQSGGTTYYADSVNGRFTISRDNAKNTFYLHMNSLTPEDTAVYYCAADHFYILIFLYGKLTLDYWGQGTQVTVSS | high polyreactivity
38 | QVQLVESGVGLVQAGGSLRLSCAASGRIFAFYTMGWYRQAPGKERELVAASSTRGDSTYYADSVKGRFTISRDNAKNTVYLQMNSLKAEDTAVYYCAKSRQTSGRVRFDYWGQGTQVTVSS | low polyreactivity
39 | QVQLVESGVGLVQAGGSLRLSCAASGRIFAHNAMGWYRQAPGKERELVAAISTGGSTNYADSVKGRFTISRDNAKNTVYLQMNSLKPEDTAVYYCARDAYLPRIADGDGRYELVDYWGQGTQVTVSS | low polyreactivity
40 | QVQLVESGVGLVQAGGSLRLSCAASGRIFGYYTMGWYRQAPGKERELVADSSGGNTSYADSVKGRFTISRDNAKNTVYLQMNSLKPEDTAGYYCAKDLPGAWRGDDYWGQGTQVTVSS | low polyreactivity
41 | QVQLVESGVGLVQAGGSLRLSCAASGRIFIKYAMGWYRQAPGKEREFVAAISGRGGSTYYADSVKGRFTISRDNAKNTVYLQMNSLKPEDTAFYYCAKRFFYSGTAAGMYYWGQGTQVTVSS | high polyreactivity
42 | QVQLVESGVGLVQAGGSLRLSCAASGRIFSFYAMGWYRQAPGKERELVAAITYTDGSTYAVSVKGRFTISRDYAKNTVYLQTNSLKPEDTAVYYCATRYRWTPYDYWGQGTQVTVSS | low polyreactivity
43 | QVQLVESGVGLVQAGGSLRLSCAASGRIFTFNVMGWYRQAPGKERELVAAITFSGGSTYYADSVKGRFTISRDNAKNTVYLQMNRLKTEDTAVYFCAAKISLGDDYWGQGTQVTVSS | low polyreactivity
